Experiments:
[1] = biological target: T1, recombinant GPVI-Fc (dimeric; D1 and D2 domains of GPVI fused to the Fc domain from IgG) (human, UniProt Q9HCN6 22-203); test: displacement of GPVI-Fc (100 nM) from collagen surface; Nb2 syringe-filtered, day 1
T1 construct: range 22-203; also called GPVI-Fcγ; dimeric GPVI; not shown: Factor Xa cleavable junction and Fc domain from IgG (Sigplg+ vector)
T1 sequence (looked up): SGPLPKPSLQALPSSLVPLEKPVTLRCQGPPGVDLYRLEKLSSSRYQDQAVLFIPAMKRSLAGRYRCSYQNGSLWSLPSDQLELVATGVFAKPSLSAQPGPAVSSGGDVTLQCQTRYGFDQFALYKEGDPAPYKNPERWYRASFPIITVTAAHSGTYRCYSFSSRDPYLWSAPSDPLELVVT
Protocol: (§1) Freshly made un-tagged nanobody 2 (4.2 mg/ml in PBS) was stored at 4° C. over a period of 72 hours. Samples were collected at 0, 24, 48 and 72 hours for ELISA and nanodrop analysis. 1 ml of Nb2 was also filtered using a Whatman 0.2 um syringe filter, and 50 μL was snap-frozen and thawed to determine the effects of both syringe filtering and freeze-thawing on nanobody function. The freeze-thawed sample was only tested between 0-48 hours after thawing. ELISA displacement assays were performed on each sample as described in ‘Solid-phase binding assay’. Nb2 concentrations were determined at each time point by measuring absorbance a 280 nm using a nanodrop ND-1000 spectrophotometer.
(§2) Nb2 stability at 4° C. was tested by comparing the ability for nb2 to displace GPVI-Fc binding to a collagen surface after 0-, 24-, 48- and 72-hours storage at 4° C. (FIG. 8). Nb2 was stored in PBS with no added preservatives. In addition, samples of nb2 that were freeze-thawed and an additional sample that had been filtered were also tested. […] There was an observed reduction in protein concentration of approximately 3% when filtering but it is not abnormal for small losses in protein yield when filtering.

[2] = biological target: T1, recombinant GPVI-Fc (dimeric; D1 and D2 …); test: displacement of GPVI-Fc (100 nM) from collagen surface; Nb2 freeze-thawed, day 0
Protocol: as §1, §2

[3] = biological target: T1, recombinant GPVI-Fc (dimeric; D1 and D2 …); test: displacement of GPVI-Fc (100 nM) from collagen surface; Nb2 stored at 4 °C, non-filtered, day 3
Protocol: as §1, §2

[4] = biological target: T1, recombinant GPVI-Fc (dimeric; D1 and D2 …); test: displacement of GPVI-Fc (100 nM) from collagen surface; Nb2 freeze-thawed, day 2
Protocol: as §1, §2

[5] = biological target: T1, recombinant GPVI-Fc (dimeric; D1 and D2 …); test: displacement of GPVI-Fc (100 nM) from collagen surface; Nb2 stored at 4 °C, non-filtered, day 2
Protocol: as §1, §2

[6] = biological target: T1, recombinant GPVI-Fc (dimeric; D1 and D2 …); test: displacement of GPVI-Fc (100 nM) from collagen surface; Nb2 stored at 4 °C, non-filtered, day 0
Protocol: as §1, §2

[7] = biological target: T1, recombinant GPVI-Fc (dimeric; D1 and D2 …); test: displacement of GPVI-Fc (100 nM) from collagen surface; Nb2 syringe-filtered, day 2
Protocol: as §1, §2

[8] = biological target: T1, recombinant GPVI-Fc (dimeric; D1 and D2 …); test: displacement of GPVI-Fc (100 nM) from collagen surface; Nb2 syringe-filtered, day 0
Protocol: as §1, §2

[9] = biological target: T1, recombinant GPVI-Fc (dimeric; D1 and D2 …); test: displacement of GPVI-Fc (100 nM) from collagen surface; Nb2 freeze-thawed, day 1
Protocol: as §1, §2

[10] = biological target: T1, recombinant GPVI-Fc (dimeric; D1 and D2 …); test: displacement of GPVI-Fc (100 nM) from collagen surface; Nb2 syringe-filtered, day 3
Protocol: as §1, §2

[11] = biological target: T1, recombinant GPVI-Fc (dimeric; D1 and D2 …); test: displacement of GPVI-Fc (100 nM) from collagen surface; Nb2 stored at 4 °C, non-filtered, day 1
Protocol: as §1, §2

[12] = biological target: T2, GPVI on human washed platelets (human, UniProt Q9HCN6 21-339); test: flow cytometry on washed platelets, 100 nM Nb28-AF647, with or without 500 nM Nb2
T2 construct: whole, on cells; also called platelet GPVI
T2 sequence (looked up): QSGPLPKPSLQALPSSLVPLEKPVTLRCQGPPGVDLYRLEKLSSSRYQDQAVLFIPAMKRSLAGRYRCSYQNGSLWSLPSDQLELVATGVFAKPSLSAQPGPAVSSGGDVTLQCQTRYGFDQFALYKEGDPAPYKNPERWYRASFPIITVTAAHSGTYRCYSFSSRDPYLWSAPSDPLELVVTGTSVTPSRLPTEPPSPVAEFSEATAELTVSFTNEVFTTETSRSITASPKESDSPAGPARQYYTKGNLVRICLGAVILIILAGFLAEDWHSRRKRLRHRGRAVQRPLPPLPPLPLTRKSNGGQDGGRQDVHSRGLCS
Protocol: a) Washed platelets were incubated in an aggregometer at 37° C. and 1200 rpm in the presence of Nb28 or PBS control prior to stimulation with 10 μg/ml Horm collagen and aggregation traces captured. Nb28 had no effect on aggregation. b) Thrombin inhibited whole blood was preincubated with either vehicle (PBS) or 500 nM of unlabelled Nb28 and then flowed over fibrillar collagen I utilising the Maastricht flow chamber at 1000/s. None of the five investigated parameters of thrombus formation or platelet activation were affected by Nb28. Each data point represents one donor (n=4), unpaired non-parametric t-test was utilized to test for significance.
Washed platelets were preincubated with 500 nM Nb2 or PBS vehicle control for 10 min, followed by addition of 100 nM Nb28-AF647 and immediate fixation. 50,000 events were acquired and Nb28-AF647 signal (FL4) measured with an Accuri C6 flow cytometer (BD) and data processed with the BD Accuri C6 Software.

B1: un-tagged Nb2 (thrombin-cleaved nanobody 2) (VHH)
VHH: QVQLQESGGGLVQPGGSLRLSCAAAGFTFDYYAIAWFRQAPGKEREGVSCISSSDGTTYYADSVKGRFTISKDNAKNTMYLQMNSLKPEDTAVYYCATSPLYSTNDRCISEDYDYWGQGTQVTVSS
notes: also called un-tagged nanobody 2
For B1, the IC50 [1] was 40.3 nM, the IC50 [2] was 46.5 nM and the IC50 [3] was 32.4 nM. For the same binder, the IC50 [4] was 44 nM, the IC50 [5] was 34 nM and the IC50 [6] was 37 nM. It also gave an IC50 [7] of 35.2 nM, an IC50 [8] of 45.7 nM and an IC50 [9] of 29.8 nM. For the same binder, the IC50 [10] was 37.1 nM and the IC50 [11] was 54.4 nM.

B2: Nb28 fluorescently labelled with AlexaFluor 647 (Nb28-AF647) (VHH)
VHH: QVQLQESGGGLVQAGDSLRLSCAASGTYSMGWFRQAPGKEREFVAAISWSGGRTNYADSVKGRFTISRDNAKNTVYLQMNSLKPEDTAVYYCSAAIYDNVSSRIGSYTYWGQGTQVTVSS
modifications: AlexaFluor 647 dye on free amino groups (NHS-ester labelling)
notes: also called labelled Nb28
B2: binds [12].

Source: patent US20240067721A1 (UNIVERSITY OF BIRMINGHAM, published 2024)
